{
  "source": "patent US20130280279A1",
  "about": "“PHARMACEUTICAL COMPOSITION OF A COMPLEX OF AN ANTI-DIG ANTIBODY AND DIGOXIGENIN THAT IS CONJUGATED TO A PEPTIDE” (HOFFMANN-LA ROCHE INC., priority 2011, published 2013)",
  "note": "*1 amine or outer side, *2 acyl side, *3 side chain or, on linkers, in order; H or OH if unused. Where a SMILES comes first, the peptide text is derived from it. Primed or numbered codes have the meaning given here. Where no end group is shown, it is not given here. [ ]: non-standard residue; d: D form. The star is where a group is joined. Pqa = 4-oxo-6-(1-piperazinyl)-3(4H)-quinazoline-acetic acid (CAS 889958-08-1), O=C(Cn1cnc2ccc(N3CCN([*:1])CC3)cc2c1=O)[*:2]; Pqa″ = 4-oxo-6-(1-piperazinyl)-3(4H)-quinazoline-acetic acid, O=C(Cn1cnc2ccc(N3CCN([*:1])CC3)cc2c1=O)[*:2]; Tyr(2,6-F2) = N[C@@H](Cc1c(F)cc(O)cc1F)C(=O)O; NMeR = CN[C@@H](CCCNC(=N)N)C(=O)O; Piv = CC(C)(C)C(=O)*; Bz = O=C(c1ccccc1)*",
  "data": [
    {"test_system": "H322M cells", "test": "CytoTox-Glo cytotoxicity assay", "format": "cell-based, human", "conditions": "CytoTox-Glo", "method": "(§1) To evaluate whether additions or alterations of the peptide Melittin, FALLv1 and FALLv2 by digoxygenin alters its biological activity, we performed in vitro assays. As these peptides are cytotoxic, their biological activity can easily be analyzed by monitoring the number of dead cells. To measure this number, the CytoTox-Glo assay (Promega Madison, WI) was used. Table 2 lists results of these CytoTox-Glo-assays that were performed to assess the biological activity of the Melittin, Fallv1 and Fallv2 peptides and their DIG-modified variants. For these assays, H322M cells were seeded at a density of 15.000 cells per well in 96 well plates. The cells were incubated for 24 hours at 37° C., 5% CO2 and 85% humidity in RPMI with 10% FCS, Na+ Pyrovate, L-Glutamine and NEAA mix. The peptide and it's DIG-modified variant were then added to the cells in the concentrations indicated. The cells were incubated for further 48 hours. After this period, the cells were treated with the CytoTox-Glo-assay reagent according to the manufacturers instructions. In brief, this assay detects dead cells via the presence of a protease in the medium that cleaves a […] peptide in the reagent. The luminescence of this assay therefore represents dead cells. The 96 well plates were then analyzed in a InfiniteF200 luminescence reader (Tecan Austria, Groding). […] Not only covalent coupling to haptens, but also complexation of peptides to large antibody molecules may influence their biological activity. Because IgG-derived molecules are large proteins (10-40 fold the size of peptides), it cannot a priori be excluded that such molecules may sterically hinder accessibility of peptide and therefore interfere with biological activity. To address this topic, we analyzed the in vitro activity of peptide-antibody complexes for the cytotoxic peptides FALLv1 and Fam5b. Again, we made use of the fact that these peptide are cytotoxic towards tumor cell lines and therefore tested their functionality in cytotoxicity and viability assays as described above. […] Moreover, utilizing bispecific antibodies for targeting such peptides to tumor cells, we could show increased peptide-mediated cytotoxicity towards targeted cells compared to nontargeted cells (as shown in PCT/EP2010/004051).", "values": [
      {"compound": "CC[C@H](C)[C@H](NC(=O)[C@H](CCCCN)NC(=O)[C@H](CCC(=O)O)NC(=O)[C@H](CCCCN)NC(=O)[C@H](CO)NC(=O)[C@H](CCCCN)NC(=O)[C@H](CCCNC(=N)N)NC(=O)[C@H](Cc1ccccc1)NC(=O)[C@H](Cc1ccccc1)NC(=O)[C@H](CC(=O)O)NC(=O)CNC(=O)[C@H](CC(C)C)NC(=O)[C@H](CC(C)C)NC(=O)[C@H](C)NC(=O)[C@H](Cc1ccccc1)NC(=O)[C@H](CCCNC(=N)N)NC(=O)[C@H](CCCCN)NC(=O)[C@@H](N)CC(N)=O)C(=O)NCC(=O)N[C@@H](CCCCN)C(=O)N[C@@H](CCC(=O)O)C(=O)N[C@@H](Cc1ccccc1)C(=O)N[C@@H](CCCCN)C(=O)N[C@@H](CCCNC(=N)N)C(=O)N[C@H](C(=O)N[C@H](C(=O)N[C@@H](CCC(N)=O)C(=O)N[C@@H](CCCNC(=N)N)C(=O)N[C@H](C(=O)N[C@@H](CCCCN)C(=O)N[C@@H](CC(=O)O)C(=O)N[C@@H](Cc1ccccc1)C(=O)N[C@@H](CC(C)C)C(=O)N[C@@H](CCCNC(=N)N)C(=O)N[C@@H](CC(N)=O)C(=O)N[C@@H](CC(C)C)C(=O)N[C@H](C(=O)N1CCC[C@H]1C(=O)N[C@@H](CCCNC(=N)N)C(N)=O)C(C)C)[C@@H](C)CC)C(C)C)[C@@H](C)CC", "note": "[FALLv2] (H-NKRFALLGDFFRKSKEKIGKEFKRIVQRIKDFLRNLVPR-NH2; N-terminus and C-terminus assumed)", "activity upon conjugation to digoxygenin": "similarly retained"},
      {"compound": "CC[C@H](C)[C@H](NC(=O)[C@H](CCCCN)NC(=O)[C@H](CCC(=O)O)NC(=O)[C@H](CCCCN)NC(=O)[C@H](CO)NC(=O)[C@H](CCCCN)NC(=O)[C@H](CCCNC(=N)N)NC(=O)[C@H](Cc1ccccc1)NC(=O)[C@H](Cc1ccccc1)NC(=O)[C@H](CC(=O)O)NC(=O)CNC(=O)[C@H](CC(C)C)NC(=O)[C@H](CC(C)C)NC(=O)[C@H](C)NC(=O)[C@@H](N)Cc1ccccc1)C(=O)NCC(=O)N[C@@H](CCCCN)C(=O)N[C@@H](CCC(=O)O)C(=O)N[C@@H](Cc1ccccc1)C(=O)N[C@@H](CCCCN)C(=O)N[C@@H](CCCNC(=N)N)C(=O)N[C@H](C(=O)N[C@H](C(=O)N[C@@H](CCC(N)=O)C(=O)N[C@@H](CCCNC(=N)N)C(=O)N[C@H](C(=O)N[C@@H](CCCCN)C(=O)N[C@@H](CC(=O)O)C(=O)N[C@@H](Cc1ccccc1)C(=O)N[C@@H](CC(C)C)C(=O)N[C@@H](CCCNC(=N)N)C(=O)N[C@@H](CC(N)=O)C(=O)N[C@@H](CC(C)C)C(=O)N[C@H](C(=O)N1CCC[C@H]1C(=O)N[C@@H](CCCNC(=N)N)C(=O)N[C@H](C(=O)N[C@@H](CCC(=O)O)C(=O)N[C@@H](CO)C(N)=O)[C@@H](C)O)C(C)C)[C@@H](C)CC)C(C)C)[C@@H](C)CC", "note": "[FALLv1]", "activity upon conjugation to digoxygenin": "similarly retained"}
    ]},
    {"test_system": "H322M cells", "test": "CytoTox-Glo cytotoxicity assay", "format": "cell-based, human", "conditions": "cytotoxicity and viability assays, tumor cell lines", "method": "as §1", "values": [
      {"compound": "QHRYQQLGAGLKVLFKKTHRILRRLFNLAK (listed as Homo sapiens) [Fam5b]", "biological activity of digoxigenated peptide complexed with digoxigenin binding antibody derivatives": "retain their biological activities"},
      {"compound": "CC[C@H](C)[C@H](NC(=O)[C@H](CCCCN)NC(=O)[C@H](CCC(=O)O)NC(=O)[C@H](CCCCN)NC(=O)[C@H](CO)NC(=O)[C@H](CCCCN)NC(=O)[C@H](CCCNC(=N)N)NC(=O)[C@H](Cc1ccccc1)NC(=O)[C@H](Cc1ccccc1)NC(=O)[C@H](CC(=O)O)NC(=O)CNC(=O)[C@H](CC(C)C)NC(=O)[C@H](CC(C)C)NC(=O)[C@H](C)NC(=O)[C@@H](N)Cc1ccccc1)C(=O)NCC(=O)N[C@@H](CCCCN)C(=O)N[C@@H](CCC(=O)O)C(=O)N[C@@H](Cc1ccccc1)C(=O)N[C@@H](CCCCN)C(=O)N[C@@H](CCCNC(=N)N)C(=O)N[C@H](C(=O)N[C@H](C(=O)N[C@@H](CCC(N)=O)C(=O)N[C@@H](CCCNC(=N)N)C(=O)N[C@H](C(=O)N[C@@H](CCCCN)C(=O)N[C@@H](CC(=O)O)C(=O)N[C@@H](Cc1ccccc1)C(=O)N[C@@H](CC(C)C)C(=O)N[C@@H](CCCNC(=N)N)C(=O)N[C@@H](CC(N)=O)C(=O)N[C@@H](CC(C)C)C(=O)N[C@H](C(=O)N1CCC[C@H]1C(=O)N[C@@H](CCCNC(=N)N)C(=O)N[C@H](C(=O)N[C@@H](CCC(=O)O)C(=O)N[C@@H](CO)C(N)=O)[C@@H](C)O)C(C)C)[C@@H](C)CC)C(C)C)[C@@H](C)CC", "note": "[FALLv1]", "biological activity of digoxigenated peptide complexed with digoxigenin binding antibody derivatives": "retain their biological activities"}
    ]},
    {"target": "T1, Y2R (Homo sapiens, UniProt P49146)", "T1 sequence (P49146 1-381)": "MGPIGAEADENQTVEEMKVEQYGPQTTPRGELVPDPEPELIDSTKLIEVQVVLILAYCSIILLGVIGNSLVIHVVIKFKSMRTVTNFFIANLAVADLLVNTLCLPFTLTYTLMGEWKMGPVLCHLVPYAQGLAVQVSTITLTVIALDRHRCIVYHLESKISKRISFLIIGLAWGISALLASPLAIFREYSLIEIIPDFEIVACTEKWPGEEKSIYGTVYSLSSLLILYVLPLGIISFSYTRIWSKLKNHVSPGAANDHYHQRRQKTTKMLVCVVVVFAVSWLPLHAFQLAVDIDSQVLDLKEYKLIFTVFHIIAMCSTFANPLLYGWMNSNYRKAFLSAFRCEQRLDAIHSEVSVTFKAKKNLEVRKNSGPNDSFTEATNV", "test": "not given", "conditions": "values of WO 2007/065808; read-out: Y2R EC50 (nM) cAMP; cited from earlier work", "units": {"EC50": "nM"}, "values": [
      {"compound": "Ac-IK-Pqa-RHYLNWVTRQ(N-methyl)R(2-6 di F)Y (Ac-IK[Pqa]RHYLNWVTRQ[NMeR][Tyr(2,6-F2)]) [Example 27]", "EC50": 0.07},
      {"compound": "Benzoyl-IK-Pqa-RHYLNWVTRQ(N-methyl)RY (Bz-IK[Pqa]RHYLNWVTRQ[NMeR]Y; ends and bridges not checked) [Example 32]", "EC50": 0.66},
      {"compound": "IK-Pqa-RHYLNLVTRQ(N-methyl)R(m-)Y [Example 6]", "EC50": 1.5},
      {"compound": "IK-Pqa-RHYLNWVTRQ(N-methyl)RY (IK[Pqa]RHYLNWVTRQ[NMeR]Y; ends and bridges not checked) [Example 25]", "EC50": 0.25},
      {"compound": "IK-Pqa-RHYLNLVTRQ(N-methyl)R(2-6 di F)Y [Example 9]", "EC50": 0.19},
      {"compound": "IK-Pqa-RHYLNLVTRQ(N-methyl)RW (IK[Pqa]RHYLNLVTRQ[NMeR]W; ends and bridges not checked) [Example 21]", "EC50": 1.06},
      {"compound": "Adamtyl-IK-Pqa-RHYLNWVTRQ(N-methyl)RY (adamantyl-IK[Pqa]RHYLNWVTRQ[NMeR]Y; ends and bridges not checked) [Example 33]", "EC50": 2.9},
      {"compound": "IK-P qa-RHYLNLVTRQ (N-methyl)R(2,3.4,5,6-Penta-F)Phe [Example 18]", "EC50": 2.5},
      {"compound": "IK-Pqa-RHYLNLVTRQ(N-methyl)R(3-F)Phe [Example 17]", "EC50": 0.75},
      {"compound": "IK-Pqa-RHYLNLVTRQ(N-methyl)R(4-CF3)Phe [Example 16]", "EC50": 3.55},
      {"compound": "IK-Pqa-RHYLNLVTRQ(N-methyl)R(3.4-diC1)Phe [Example 19]", "EC50": 1.47},
      {"compound": "IK-Pqa-RHYLNLVTRQ(N-methyl)RF(O—CH3) [Example 11]", "EC50": 0.55},
      {"compound": "IK-Pqa-RHYLNLVTRQ (N-methyl)R(3-5 di F)Y [Example 8]", "EC50": 0.36},
      {"compound": "IK-Pqa-RHYLNLVTRQ(N-methyl)RY [Example 5]", "EC50": 0.42},
      {"compound": "Pentyl-IK-Pqa-RHYLNWVTRQ(N-methyl)RY (Pentyl-IK[Pqa″]RHYLNWVTRQ[NMeR]Y) [Example 29]", "EC50": 0.51},
      {"compound": "IK-Pqa-RHYLNLVTRQR-C-α-Me-Tyr [Example 24]", "EC50": 1.35},
      {"compound": "IK-Pqa-RHYLNLVTRQ(N-methyl)RF [Example 12]", "EC50": 0.69},
      {"compound": "Cyclohexyl-IK-Pqa-RHYLNWVTRQ(N-methyl)RY (cyclohexyl-IK[Pqa]RHYLNWVTRQ[NMeR]Y; ends and bridges not checked) [Example 31]", "EC50": 1.37},
      {"compound": "IK-Pqa-RHYLNLVTRQ(N-methyl)R(2)Nal [Example 23]", "EC50": 2.4},
      {"compound": "IK-Pqa-RHYLNLVTRQ(N-methyl)R(1)Nal [Example 22]", "EC50": 1.14},
      {"compound": "INle-Pqa-RHYLNWVTRQ(N-methyl)RY (IXXRHYLNWVTRQRY; Nle, Pqa linker, N-methyl Arg) [Example 26]", "EC50": 0.108},
      {"compound": "IK-Pqa-RHYLNLVTRQ(N-methyl)RCha [Example 20]", "EC50": 0.5},
      {"compound": "Trimetylacetyl-IK-Pqa-RHYLNWVTRQ(N-methyl)RY (Piv-IK[Pqa″]RHYLNWVTRQ[NMeR]Y) [Example 30]", "EC50": 0.26}
    ]}
  ]
}
